# B1: CPEB3 Ribozyme (parent)
# chain: GGGGGCCACAGCAGAAGCGUUCACGUCGCGGCCCCUGUCAGAUUCUGGUGAAUCUGCGAAUUCUGCUGU
# Variants of: B1
# Experiment: self-cleavage, relative activity (ratio to wild type); higher = more cleavage; co-transcriptional
row,Variant,self-cleavage
1,GGGGGCCACACCAGAAGCGUUCACGUCGCUGCCCCUGUCAGAUUCUGGUGAAUCUGCGAAUUCUGCUGU [G11C G30U],0.225
2,GGGGGCCACACCAGAAGCGUUCACGUCGCGCCCCCUGUCAGAUUCUGGUGAAUCUGCGAAUUCUGCUGU [G11C G31C],0.167
3,GGGGGCCACACCAGAAGCGUUCACGUCGCGUCCCCUGUCAGAUUCUGGUGAAUCUGCGAAUUCUGCUGU [G11C G31U],0.536
4,GGGGGCCACAACAGAAGCGUUCACGUCGCGGCCCCUGUCAGAUUCUGGUAAAUCUGCGAAUUCUGCUGU [G11A G50A],0.852
5,GGGGGCCACACCAGAAGCGGUCACGUCGCGGCCCCUGUCAGAUUCUGGUGAAUCUGCGAAUUCUGCUGU [G11C U20G],0.169
6,GGGGGCCACACCAGAAGCGUUCACGUCGCGGCCCCUGUCAGAUUCUGGUGAAUCUGCGAAUUUUGCUGU [G11C C63U],0.416
7,GGGGGCCACACCAGAAGCGUUCACGUCGCGGCCCCUGUCAGAUUCUGGUGAAUCUGCGAAUUCGGCUGU [G11C U64G],0.435
8,GGGGGCCACACCAGAAGCGUUCACGUCGCGGCCCCUGUUAGAUUCUGGUGAAUCUGCGAAUUCUGCUGU [G11C C39U],0.399
9,GGGGGCCACACCAGAAGCGUUCACGUCGCGGCCCCUGUCAGAUUCUGGUGAAUCUGCGACUUCUGCUGU [G11C A60C],0.299
10,GGGGGCCACACCAGAAGCGUUCACGUGGCGGCCCCUGUCAGAUUCUGGUGAAUCUGCGAAUUCUGCUGU [G11C C27G],0.104
11,GGGGGCCACAACAGAAGCGUUCACGUCGCGGCCCCUGUCAGAUACUGGUGAAUCUGCGAAUUCUGCUGU [G11A U44A],0.697
12,GGGGGCCACACCAGAAGCGUUCACGUCGCGGCCCCUGUCAGAUUCUGGUGAAUCUGCCAAUUCUGCUGU [G11C G58C],0.751
13,GGGGGCCACACCAGAAGCGUUCACGUCGCGGCCCCUGUCAGAUUCUGGUGAAUCUGCUAAUUCUGCUGU [G11C G58U],0.896
14,GGGGGCCACACCAGAAGCGUUCACGUCGCGGCCCCUGUCAGAUUCUGUUGAAUCUGCGAAUUCUGCUGU [G11C G48U],0.912
15,GGGGGCCACACCAGAAGCGUUCACGUCGCGGCCCCUGUCAGAUUCUGGUGAAUCUGCGGAUUCUGCUGU [G11C A59G],0.718
16,GGGGGCCACACCAGAAGCGUUCACGUCGCGGCCCCUGUCAGAUUGUGGUGAAUCUGCGAAUUCUGCUGU [G11C C45G],0.767
17,GGGGGCCACACCAGAAGCGUUCACGUCGCGGCCCCUGUCAGAUUCUGGUGAAUCUGCGAAUUCUGCUUU [G11C G68U],0.881
18,GGGGGCCACACCAGAAGCGUUGACGUCGCGGCCCCUGUCAGAUUCUGGUGAAUCUGCGAAUUCUGCUGU [G11C C22G],0.18
19,GGGGGCCACAACAGAAGCGUGCACGUCGCGGCCCCUGUCAGAUUCUGGUGAAUCUGCGAAUUCUGCUGU [G11A U21G],0.285
20,GGGGGCCACACCAGAAGCGUUCACGUCGCGGCUCCUGUCAGAUUCUGGUGAAUCUGCGAAUUCUGCUGU [G11C C33U],0.827

row,Variant,self-cleavage
1,GGGGGCCACACCAGAAGCGUUCACGUCGCGGCACCUGUCAGAUUCUGGUGAAUCUGCGAAUUCUGCUGU [G11C C33A],0.547
2,GGGGGCCACACCAGAUGCGUUCACGUCGCGGCCCCUGUCAGAUUCUGGUGAAUCUGCGAAUUCUGCUGU [G11C A16U],0.49
3,GGGGGCCACACCAGACGCGUUCACGUCGCGGCCCCUGUCAGAUUCUGGUGAAUCUGCGAAUUCUGCUGU [G11C A16C],0.276
4,GGGGGCCACACCAGAAGCGUUCACUUCGCGGCCCCUGUCAGAUUCUGGUGAAUCUGCGAAUUCUGCUGU [G11C G25U],0.0946
5,GGGGGCCACACCAGAAGCGUUCACGUCGCGGCCCCUGUCAGAUUCUGGUGAAUAUGCGAAUUCUGCUGU [G11C C54A],0.252
6,GGGGGCCACAACAGAAGCGUUCACGUCGCGGCCCCUGUCAGAUUCUGGUGAAUCUGCGAAUUCUGCAGU [G11A U67A],0.934
7,GGGGGCCACACCAGAAGCGUUCACGUCGCGGCCCCUGUCAGAUUCUGGUGAAUCUCCGAAUUCUGCUGU [G11C G56C],0.176
8,GGGGGCCACACCAGAAGCGUUCACGUCGCGGCCCCUGUCAGAUUCUGGCGAAUCUGCGAAUUCUGCUGU [G11C U49C],0.803
9,GGGGGCCACACCAGAAGCGUUCACGUCGCGGCCCCUGUCAGAUUCUGGGGAAUCUGCGAAUUCUGCUGU [G11C U49G],0.866
10,GGGGGCCACAACAGAAGCGUUCACGUCGCGGCCCCUGUCAGAUUCUGGUGAAUCUGCGAAUUCUGCUGC [G11A U69C],1.03
11,GGGGGCCACACCAGAAGCGUUCACGUCGCGGCCCAUGUCAGAUUCUGGUGAAUCUGCGAAUUCUGCUGU [G11C C35A],0.205
12,GGGGGCCACACCAGAAGCGUUCACGUCGCGGCCCUUGUCAGAUUCUGGUGAAUCUGCGAAUUCUGCUGU [G11C C35U],0.758
13,GGGGGCCACAACAGAAGCGUUCACGUCGCGGCCCCUGUCAGAUUCUGGCGAAUCUGCGAAUUCUGCUGU [G11A U49C],0.903
14,GGGGGCCACAACAGAAGCGUUCACGUCGCGGCCCCUGUCAGAUUCUGAUGAAUCUGCGAAUUCUGCUGU [G11A G48A],0.906
15,GGGGGCCACACCAGAAGCGUUCACGUCGCGGCCCCUGUCAGAUUCUGGUCAAUCUGCGAAUUCUGCUGU [G11C G50C],0.748
16,GGGGGCCACACCAGGAGCGUUCACGUCGCGGCCCCUGUCAGAUUCUGGUGAAUCUGCGAAUUCUGCUGU [G11C A15G],0.627
17,GGGGGCCACAACAGAAGCGUUCACGUCGCGGCCCCUGUCAGAUUCUGGUGAAUCUGCGAAUUCUCCUGU [G11A G65C],0.557
18,GGGGGCCACAACAGAAGCGUUCACGUCGCGGCCCCUGUCAGAUUCUGGUGAAUCCGCGAAUUCUGCUGU [G11A U55C],0.493
19,GGGGGCCACACCAGAAGCGUUCACGUCGCGGCCCCUGUCAGAUUCUGGUGAAUCUGCGAAUUCUACUGU [G11C G65A],0.559
